Laboratory results from patent US20200261595A1 (Novo Nordisk, published 2020).
Blank lines part the entries; values can stand above or below the binder they belong to.

How the values were obtained:
[1] = biological target: insulin receptor of isolated rat adipocytes (rat, UniProt P15127 27-1383); assay: cell-based or functional assay
insulin receptor A = insulin receptor A (UniProt P06213-2 28-1370, limits assumed); assay: insulin receptor binding assay as in Vienberg et al. 2011; relative to human insulin on insulin receptor A (100%)
Sequence of insulin receptor A (P06213 other isoform, or with tags, fused parts or gaps limits assumed): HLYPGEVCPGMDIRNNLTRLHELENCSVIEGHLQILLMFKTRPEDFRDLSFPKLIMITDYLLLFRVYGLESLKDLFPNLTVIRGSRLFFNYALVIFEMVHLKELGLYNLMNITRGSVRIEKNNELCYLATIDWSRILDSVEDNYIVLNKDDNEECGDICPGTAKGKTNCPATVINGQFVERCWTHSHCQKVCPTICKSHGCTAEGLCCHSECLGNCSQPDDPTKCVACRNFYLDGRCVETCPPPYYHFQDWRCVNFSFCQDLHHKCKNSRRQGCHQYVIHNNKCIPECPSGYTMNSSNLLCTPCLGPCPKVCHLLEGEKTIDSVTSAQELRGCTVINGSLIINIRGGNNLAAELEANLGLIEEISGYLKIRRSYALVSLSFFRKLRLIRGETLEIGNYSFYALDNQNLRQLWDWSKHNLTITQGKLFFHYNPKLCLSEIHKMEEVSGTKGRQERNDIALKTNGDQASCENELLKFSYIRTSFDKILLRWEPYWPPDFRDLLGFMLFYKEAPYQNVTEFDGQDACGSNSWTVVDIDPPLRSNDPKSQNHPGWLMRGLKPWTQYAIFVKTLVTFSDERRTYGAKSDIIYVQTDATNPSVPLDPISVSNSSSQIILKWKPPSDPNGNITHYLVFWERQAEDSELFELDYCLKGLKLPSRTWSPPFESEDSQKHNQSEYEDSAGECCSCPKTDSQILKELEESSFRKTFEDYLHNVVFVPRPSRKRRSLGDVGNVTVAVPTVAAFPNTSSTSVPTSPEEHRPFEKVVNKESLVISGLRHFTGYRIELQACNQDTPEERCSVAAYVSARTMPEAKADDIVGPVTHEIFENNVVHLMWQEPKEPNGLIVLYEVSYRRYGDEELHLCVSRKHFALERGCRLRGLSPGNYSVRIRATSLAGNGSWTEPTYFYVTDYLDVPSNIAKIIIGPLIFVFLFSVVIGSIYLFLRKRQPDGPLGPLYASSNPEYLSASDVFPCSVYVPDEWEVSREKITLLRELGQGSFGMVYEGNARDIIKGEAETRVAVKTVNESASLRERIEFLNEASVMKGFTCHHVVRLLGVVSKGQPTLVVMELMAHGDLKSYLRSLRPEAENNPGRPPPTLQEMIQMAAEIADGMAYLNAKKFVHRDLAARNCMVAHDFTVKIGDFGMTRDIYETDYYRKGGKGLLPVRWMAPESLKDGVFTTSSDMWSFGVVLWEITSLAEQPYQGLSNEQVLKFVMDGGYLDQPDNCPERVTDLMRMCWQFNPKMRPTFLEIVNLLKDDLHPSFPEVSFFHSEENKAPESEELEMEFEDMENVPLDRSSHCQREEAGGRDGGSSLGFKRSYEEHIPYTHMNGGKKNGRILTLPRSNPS

Sequence of insulin receptor of isolated rat adipocytes (P15127 27-1383): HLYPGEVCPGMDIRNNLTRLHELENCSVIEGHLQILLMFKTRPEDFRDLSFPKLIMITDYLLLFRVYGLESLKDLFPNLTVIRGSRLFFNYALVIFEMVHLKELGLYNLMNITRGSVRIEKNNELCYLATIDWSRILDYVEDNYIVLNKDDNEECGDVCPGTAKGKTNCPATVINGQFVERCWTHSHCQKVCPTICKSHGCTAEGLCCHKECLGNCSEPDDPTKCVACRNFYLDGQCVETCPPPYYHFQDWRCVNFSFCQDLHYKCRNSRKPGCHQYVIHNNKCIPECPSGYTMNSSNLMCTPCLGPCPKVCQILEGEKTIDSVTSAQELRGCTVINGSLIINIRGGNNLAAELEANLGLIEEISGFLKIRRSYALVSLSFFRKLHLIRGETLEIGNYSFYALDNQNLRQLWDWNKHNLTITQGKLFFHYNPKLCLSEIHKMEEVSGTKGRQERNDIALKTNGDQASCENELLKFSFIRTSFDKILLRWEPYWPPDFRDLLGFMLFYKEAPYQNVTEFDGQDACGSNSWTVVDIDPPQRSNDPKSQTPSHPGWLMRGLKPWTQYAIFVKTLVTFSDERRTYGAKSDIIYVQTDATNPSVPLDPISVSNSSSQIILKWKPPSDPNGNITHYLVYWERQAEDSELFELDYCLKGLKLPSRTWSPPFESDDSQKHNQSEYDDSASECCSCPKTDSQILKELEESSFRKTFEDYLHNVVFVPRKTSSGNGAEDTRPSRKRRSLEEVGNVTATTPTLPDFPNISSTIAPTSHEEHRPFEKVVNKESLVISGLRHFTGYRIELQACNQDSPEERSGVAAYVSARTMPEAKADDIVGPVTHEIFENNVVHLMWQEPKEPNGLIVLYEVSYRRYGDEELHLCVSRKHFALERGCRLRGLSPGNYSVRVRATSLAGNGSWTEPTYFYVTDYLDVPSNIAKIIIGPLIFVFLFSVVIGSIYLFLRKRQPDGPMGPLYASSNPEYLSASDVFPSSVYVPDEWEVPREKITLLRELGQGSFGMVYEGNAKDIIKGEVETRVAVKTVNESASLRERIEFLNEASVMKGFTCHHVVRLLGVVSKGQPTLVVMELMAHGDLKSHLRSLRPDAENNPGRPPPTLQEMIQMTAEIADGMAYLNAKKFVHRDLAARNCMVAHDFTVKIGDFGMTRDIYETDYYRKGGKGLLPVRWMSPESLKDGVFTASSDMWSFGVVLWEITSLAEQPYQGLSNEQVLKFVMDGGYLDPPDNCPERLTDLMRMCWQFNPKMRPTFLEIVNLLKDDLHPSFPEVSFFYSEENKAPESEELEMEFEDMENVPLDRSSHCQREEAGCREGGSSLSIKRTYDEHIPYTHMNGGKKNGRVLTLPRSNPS

Lipogenesis in rat adipocytes [Potency (%)] Mean Value [1]: 3.68 % of human insulin
Insulin receptor affinity [IC50 relative to HI (%)] (insulin receptor A): 3.68%
B1: (A14E, A21G, A22(GQAP)19, A98K^, A99P, B25H, B29R, desB30 human insulin)/(227A, 234A, 235K, 297E, 315Q, 384Q, des447 hIgG4-Fc(228-447)) … (other)
chain 1: GIVEQCCTSICSLEQLENYCGGQAPGQAPGQAPGQAPGQAPGQAPGQAPGQAPGQAPGQAPGQAPGQAPGQAPGQAPGQAPGQAPGQAPGQAPGQAPKP
chain 2: FVNQHLCGSHLVEALYLVCGERGFHYTPR
chain 3: ASCPAPEAKGGPSVFLFPPKPKDTLMISRTPEVTCVVVDVSQEDPEVQFNWYVDGVEVHNAKTKPREEQFESTYRVVSVLTVLHQDWLQGKEYKCKVSNKGLPSSIEKTISKAKGQPREPQVYTLPPSQEEMTKNQVSLTCLVKGFYPSDIAVEWESQGQPENNYKTTPPVLDSDGSFFLYSRLTVDKSRWQEGNVFSCSVMHEALHNHYTQKSLSLSLG
modifications: Cys229 (EU numbering) sulphur bound to an acetyl arm of the linker; A98K N(eps) acylated by the trivalent linker 4-[bis[2-[(2-acetyl)amino]ethyl]amino]-4-oxo-butanoyl
notes: also called Ex 5.15

Insulin receptor affinity [IC50 relative to HI (%)] (insulin receptor A): 1.07%
B2: (A1(N(alpha)acetyl), A14E, A21G, A22(GQAP)19, A98K^, A99P, B1(N(alpha)acetyl), B25H, B29R, desB30 human insulin)/(227A, 234A, 235K, 297E, 315Q, 384Q, des447 … (other)
chain 1: B1 chain 1
chain 2: FVNQHLCGSHLVEALYLVCGERGFHYTPR
chain 3: B1 chain 3
modifications: Cys229 (EU numbering) sulphur bound to an acetyl arm of the linker; B1 N(alpha)-acetyl; A1 N(alpha)-acetyl; A98K N(eps) acylated by the trivalent linker 4-[bis[2-[(2-acetyl)amino]ethyl]amino]-4-oxo-butanoyl
notes: Chemical insulin-Fc conjugate; also called Ex 5.27

Lipogenesis in rat adipocytes [Potency (%)] Mean Value [1]: 0.95 % of human insulin
Insulin receptor affinity [IC50 relative to HI (%)] (insulin receptor A): 2.1%
B3: A14E, A21Q, A22(G)18, A40K^, B25H, B29R, desB30 human insulin/(227A, 234A, 235K hIgG4-Fc(228-447)) 4-[bis[2-[(2-acetyl)amino]ethyl]amino]-4-oxo-butanoyl … (other)
chain 1: GIVEQCCTSICSLEQLENYCQGGGGGGGGGGGGGGGGGGK
chain 2: FVNQHLCGSHLVEALYLVCGERGFHYTPR
chain 3: ASCPAPEAKGGPSVFLFPPKPKDTLMISRTPEVTCVVVDVSQEDPEVQFNWYVDGVEVHNAKTKPREEQFNSTYRVVSVLTVLHQDWLNGKEYKCKVSNKGLPSSIEKTISKAKGQPREPQVYTLPPSQEEMTKNQVSLTCLVKGFYPSDIAVEWESNGQPENNYKTTPPVLDSDGSFFLYSRLTVDKSRWQEGNVFSCSVMHEALHNHYTQKSLSLSLGK
modifications: Cys229 (EU numbering) sulphur bound to an acetyl arm of the linker; A40K N(eps) acylated by the trivalent linker 4-[bis[2-[(2-acetyl)amino]ethyl]amino]-4-oxo-butanoyl
notes: also called Ex 5.21

Insulin receptor affinity [IC50 relative to HI (%)] (insulin receptor A): 2.47%
B4: A14E, A21G, A22(GQEP)3, A34G, A35Q, A36E, A37K^, A38P, B25H, B29R, desB30 human insulin/(227A, 234A, 235K hIgG4-Fc(228-447)) … (other)
chain 1: GIVEQCCTSICSLEQLENYCGGQEPGQEPGQEPGQEKP
chain 2: FVNQHLCGSHLVEALYLVCGERGFHYTPR
chain 3: B3 chain 3
modifications: Cys229 (EU numbering) sulphur bound to an acetyl arm of the linker; A37K N(eps) acylated by the trivalent linker 4-[bis[2-[(2-acetyl)amino]ethyl]amino]-4-oxo-butanoyl
notes: also called Ex 5.10

Lipogenesis in rat adipocytes [Potency (%)] Mean Value [1]: 3.02 % of human insulin
Insulin receptor affinity [IC50 relative to HI (%)] (insulin receptor A): 2.96%
B5: A14E, A21G, A22(GQAPGQEP)6, A70K^, A71P, B25H, B29R, desB30 human insulin/(227A, 234A, 235K hIgG4-Fc(228-447)) … (other)
chain 1: GIVEQCCTSICSLEQLENYCGGQAPGQEPGQAPGQEPGQAPGQEPGQAPGQEPGQAPGQEPGQAPGQEPKP
chain 2: FVNQHLCGSHLVEALYLVCGERGFHYTPR
chain 3: B3 chain 3
modifications: Cys229 (EU numbering) sulphur bound to an acetyl arm of the linker; A70K N(eps) acylated by the trivalent linker 4-[bis[2-[(2-acetyl)amino]ethyl]amino]-4-oxo-butanoyl
notes: also called Ex 5.9

Insulin receptor affinity [IC50 relative to HI (%)] (insulin receptor A): 5.07%
B6: A14E, A21G, A22(GQEP)19, A98K^, A99P, B3Q, B25H, B29R, desB30 human insulin/(227A, 234A, 235K hIgG4-Fc(228-447)) … (other)
chain 1: GIVEQCCTSICSLEQLENYCGGQEPGQEPGQEPGQEPGQEPGQEPGQEPGQEPGQEPGQEPGQEPGQEPGQEPGQEPGQEPGQEPGQEPGQEPGQEPKP
chain 2: FVQQHLCGSHLVEALYLVCGERGFHYTPR
chain 3: B3 chain 3
modifications: Cys229 (EU numbering) sulphur bound to an acetyl arm of the linker; A98K N(eps) acylated by the trivalent linker 4-[bis[2-[(2-acetyl)amino]ethyl]amino]-4-oxo-butanoyl
notes: also called Ex 5.6

Insulin receptor affinity [IC50 relative to HI (%)] (insulin receptor A): 3.85%
B7: (A14E, A21G, A22(GQEP)19, 98K^, A99P, B25H, B29R, desB30 human insulin)/(226A, 227G, 228P, 234A, 235K, des447 hIgG4-Fc(228-447)) … (other)
chain 1: B6 chain 1
chain 2: FVNQHLCGSHLVEALYLVCGERGFHYTPR
chain 3: AGPCPAPEAKGGPSVFLFPPKPKDTLMISRTPEVTCVVVDVSQEDPEVQFNWYVDGVEVHNAKTKPREEQFNSTYRVVSVLTVLHQDWLNGKEYKCKVSNKGLPSSIEKTISKAKGQPREPQVYTLPPSQEEMTKNQVSLTCLVKGFYPSDIAVEWESNGQPENNYKTTPPVLDSDGSFFLYSRLTVDKSRWQEGNVFSCSVMHEALHNHYTQKSLSLSLG
modifications: Cys229 (EU numbering) sulphur bound to an acetyl arm of the linker; A98K N(eps) acylated by the trivalent linker 3,5-bis[(2-acetyl)amino]benzoyl
